Data taken from PMC2156126.

Biological target: GST-VCA (GST fusion of human N-WASP residues 392-505) on glutathione Sepharose (human) (UniProt O00401)
Assay: pull-down

GST-VCA (GST fusion of human N-WASP residues 392-505) on glutathione Sepharose (human), sequence (O00401 392-505): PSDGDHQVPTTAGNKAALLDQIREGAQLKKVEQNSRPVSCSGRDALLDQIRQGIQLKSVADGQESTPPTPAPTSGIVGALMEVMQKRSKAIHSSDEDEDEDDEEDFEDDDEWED

For “Arp2/3 complex endogenous in human platelet extracts (from UniProt P61158;P61160;O15145)”, the percent depleted from the extract by the beads was greater than 80%.
